{"source": "paper PMC12249575", "target": "EcSofic H194A mutant (Sofic from Escherichia coli H397) (Escherichia coli H397)", "experiment": "AUC; sedimentation velocity, 50,000 rpm, 12 °C; samples 0.8 mg/mL in 20 mM Tris-HCl pH 7.5, 100 mM NaCl, 1 mM DTT; SEDFIT", "data": [{"substance": "EcSofic H194A mutant (Sofic from Escherichia coli H397) (enzyme)", "values": [{"measurement": "stoichiometry N", "result": 2}]}]}
